Assay results as given in US20130288305A1 (AVEO PHARMACEUTICALS, published 2013).

T1: recombinant human FGFR1 beta (IIIb)/Fc Chimera (human, UniProt P11362-19 120-376)
T1 construct: Treated as one reagent; also called rhFGFR1β-IIIc-Fc; rhFGFR1β-IIIb-Fc; Fc part of the bought chimera not given
T1 sequence (looked up): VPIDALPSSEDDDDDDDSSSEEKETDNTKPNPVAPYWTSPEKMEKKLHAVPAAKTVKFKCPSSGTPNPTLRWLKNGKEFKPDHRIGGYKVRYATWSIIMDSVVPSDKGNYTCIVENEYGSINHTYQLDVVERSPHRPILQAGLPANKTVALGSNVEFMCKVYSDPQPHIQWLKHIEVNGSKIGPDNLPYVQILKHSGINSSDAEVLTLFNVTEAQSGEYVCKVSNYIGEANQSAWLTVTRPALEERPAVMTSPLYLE


Assays:
[1] = target: T2, recombinant human FGFR2 beta (IIIb)/Fc Chimera (human, UniProt P21802-3 152-378); assay: SPR (Biacore T100), antibody captured on anti-mouse IgG, FGFR protein as analyte, 25 C
T2 construct: Bought from R&D Systems; the IIIb isoform applies; also called rhFGFR2β-IIIb-Fc; human FGFR2-IIIb; Fc part of the bought chimera not given
T2 sequence (P21802 other isoform, or with tags, fused parts or gaps mutant): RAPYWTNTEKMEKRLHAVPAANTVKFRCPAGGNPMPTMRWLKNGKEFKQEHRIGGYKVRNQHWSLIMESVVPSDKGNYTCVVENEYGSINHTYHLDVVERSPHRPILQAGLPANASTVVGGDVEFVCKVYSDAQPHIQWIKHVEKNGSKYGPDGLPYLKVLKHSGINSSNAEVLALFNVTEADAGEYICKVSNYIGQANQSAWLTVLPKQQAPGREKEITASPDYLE
Method: (§1) Rabbit anti-mouse IgGs (GE Healthcare) were immobilized on carboxymethylated dextran CM4 sensor chips (GE Healthcare) by amine coupling, using a standard coupling protocol, according to the vendor's instructions (GE Healthcare). The analyses were performed at 25° C. and 37° C., using PBS containing 0.05% surfactant P20 (GE Healthcare) as running buffer.
(§2) The antibodies were captured in individual flow cells at a flow rate of 10 μl/min. Injection time was varied for each antibody to yield an Rmax between 30 and 60 RU. […] The dissociation phase was monitored for up to 900 seconds. The surface was then regenerated with two 60-second injections of 10 mM Glycine-HCl (pH 1.7), at a flow rate of 60 μl/minute. The FGFR protein concentration range tested was 50 to 3.125 nM (two-fold dilutions).
(§3) Kinetic parameters were determined using the kinetic function of the BlAevalutation software (GE Healthcare) with double reference subtraction. Kinetic parameters for each antibody, kₐ (association rate constant), kd (dissociation rate constant) and KD (equilibrium dissociation constant) were determined.

[2] = target: T3, recombinant human FGFR2 beta (IIIb)/Fc in which the Fc region was removed enzymatically (human, UniProt P21802-3 152-378, limits assumed); assay: as above
T3 construct: also called rhFGFR2β-IIIb-cleaved; monomeric recombinant human FGFR2 beta IIIb
T3 sequence (P21802 other isoform, or with tags, fused parts or gaps limits assumed): as the sequence (P21802 other isoform, or with tags, fused parts or gaps mutant) above
Method: as §1, §2, §3

[3] = target: T1, recombinant human FGFR1 beta (IIIb)/Fc …; assay: as above
Method: as §1, §2, §3

[4] = target: T2, recombinant human FGFR2 beta (IIIb)/Fc …; assay: SPR (Biacore T100), antibody captured on anti-mouse IgG, FGFR protein as analyte, 37 C
Method: as §1, §2, §3

[5] = target: T3, recombinant human FGFR2 beta (IIIb)/Fc …; assay: as above
Method: as §1, §2, §3

[6] = target: T3, recombinant human FGFR2 beta (IIIb)/Fc …; assay: SPR (Biacore T100), antibody captured on anti-human IgG Fc, rhFGFR2β-IIIb-cleaved as analyte, 25 C
Method: (§4) Goat anti-human IgG Fc (Jackson ImmunoResearch, Catalog No. 109-005-098) was immobilized on carboxymethylated dextran CM4 sensor chips (Biacore) by amine coupling (Biacore) using a standard coupling protocol according to the vendor's instructions. The analyses were performed at 25° C. and 37° C. using PBS (Invitrogen) containing 0.05% surfactant P20 (Biacore) as running buffer.
(§5) Purified antibodies were captured in individual flow cells at a flow rate of 10 μl/minute. Injection time was varied for each antibody to yield an Rₘₐₓ between 30 and 90 RU. […] The dissociation phase was monitored for up to 900 seconds. The surface was then regenerated with two 60 second injections of glycine pH 2.25 (made from glycine pH 2.0 (Biacore) and pH 2.5 (Biacore)) at 30 μl/minute. Experiments were conducted using concentrations of rhFGFR2β-IIIb-cleaved between 20 and 1.25 nM (a two-fold serial dilution).
Kinetic parameters were determined using the kinetic function of the BlAevaluation software (Biacore) with double reference subtraction. Kinetic parameters for each antibody, kₐ (association rate constant), kd (dissociation rate constant) and KD (equilibrium dissociation constant) were determined.

[7] = target: T3, recombinant human FGFR2 beta (IIIb)/Fc …; assay: SPR (Biacore T100), antibody captured on anti-human IgG Fc, rhFGFR2β-IIIb-cleaved as analyte, 37 C
Method: as §4, §5

Row | Binder | Kd [1] [nM] | koff [1] [s⁻¹] | kon [1] [M⁻¹ s⁻¹] | Kd [2] [nM] | Kd [4] [nM] | Kd [5] [nM] | koff [5] [s⁻¹] | kon [5] [M⁻¹ s⁻¹] | Kd [6] [nM] | koff [6] [s⁻¹] | kon [6] [M⁻¹ s⁻¹] | Kd [7] [nM] | koff [7] [s⁻¹] | kon [7] [M⁻¹ s⁻¹] | binding result [3]
1 | antibody 4B9 (antibody, Murine IgG1 kappa from hybridoma clone 4B9; also called GP369; monoclonal antibody 4B9) heavy: EVQLQQSGTVLARPGASVKMSCKTSGYTFTSYWMHWVKQRPGQGLEWIGAIYPGNSDTDYSQKFKGKATLTAVTSATTAYMELSSLTNEDSAVYYCSKFDYWGQGTTLTVSSAKTTPPSVYPLAPGSAAQTNSMVTLGCLVKGYFPEPVTVTWNSGSLSSGVHTFPAVLQSDLYTLSSSVTVPSSTWPSQTVTCNVAHPASSTKVDKKIVPRDCGCKPCICTVPEVSSVFIFPPKPKDVLTITLTPKVTCVVVDISKDDPEVQFSWFVDDVEVHTAQTQPREEQFNSTFRSVSELPIMHQDWLNGKEFKCRVNSAAFPAPIEKTISKTKGRPKAPQVYTIPPPKEQMAKDKVSLTCMITDFFPEDITVEWQWNGQPAENYKNTQPIMDTDGSYFVYSKLNVQKSNWEAGNTFTCSVLHEGLHNHHTEKSLSHSPGK light: QIVLTQSPALMSASPGEKVTMTCSASSSVNYMYWYQQKPRSSPKPWIYLTSNLASGVPARFSGRGSGTSYSLTISSMEAEDAATYYCQQWSSNPYTFGGGTKLEIKRADAAPTVSIFPPSSEQLTSGGASVVCFLNNFYPRDINVKWKIDGSERQNGVLNSWTDQDSKDSTYSMSSTLTLTKDEYERHNSYTCEATHKTSTSPIVKSFNRNEC | 0.61 | 4.6e-05 | 94000 | 4.2 | 2.96 | 1.2 | 0.000223 | 254000 | – | – | – | – | – | – | no binding (tested: 50 to 3.125 nM tested)
2 | Hu4B9-82 (antibody, Humanized IgG1 kappa) heavy: not shown light: EIVLTQSPATLSLSPGERATLSCRASSSVNYMYWYQQKPGQAPRPWIYLTSNRATGIPARFSGSGSGTDYTLTISSLEPEDFAVYYCQQWSSNPYTFGQGTKLEIKRTVAAPSVFIFPPSDEQLKSGTASVVCLLNNFYPREAKVQWKVDNALQSGNSQESVTEQDSKDSTYSLSSTLTLSKADYEKHKVYACEVTHQGLSSPVTKSFNRGEC | – | – | – | – | – | – | – | – | 0.49 | 9.4e-05 | 190000 | 0.93 | 0.00036 | 400000 | –

Continued, in another order:

Row | Kd [1] [nM] | koff [1] [s⁻¹] | kon [1] [M⁻¹ s⁻¹] | Kd [2] [nM] | Kd [4] [nM] | Kd [5] [nM] | koff [5] [s⁻¹] | kon [5] [M⁻¹ s⁻¹] | Kd [6] [nM] | koff [6] [s⁻¹] | kon [6] [M⁻¹ s⁻¹] | Kd [7] [nM] | koff [7] [s⁻¹] | kon [7] [M⁻¹ s⁻¹] | Binder | binding result [3]
3 | – | – | – | – | – | – | – | – | 0.26 | 6.5e-05 | 240000 | 0.89 | 0.00028 | 370000 | Hu4B9-65 (antibody, Humanized IgG1 kappa) heavy: not shown light: EIVLTQSPATLSLSPGERATLSCRASSSVNYMYWYQQKPGQAPRPWIYLTSNRATGVPARFSGSGSGTDYTLTISSLEPEDFAVYYCQQWSSNPYTFGQGTKLEIKRTVAAPSVFIFPPSDEQLKSGTASVVCLLNNFYPREAKVQWKVDNALQSGNSQESVTEQDSKDSTYSLSSTLTLSKADYEKHKVYACEVTHQGLSSPVTKSFNRGEC | –
4 | – | – | – | – | – | – | – | – | 0.35 | 8.9e-05 | 260000 | 0.92 | 0.00029 | 320000 | Hu4B9-83 (antibody, Humanized IgG1 kappa) heavy: not shown light: EIVLTQSPATLSLSPGERATLSCRASSSVNYMYWYQQKPGQAPRPWIYLTSNRATGIPARFSGSGSGTDFTLTISSLEPEDFAVYYCQQWSSNPYTFGQGTKLEIKRTVAAPSVFIFPPSDEQLKSGTASVVCLLNNFYPREAKVQWKVDNALQSGNSQESVTEQDSKDSTYSLSSTLTLSKADYEKHKVYACEVTHQGLSSPVTKSFNRGEC | –
